This test has as its target epidermal growth factor receptor (EGFr) (human (endogenous in human breast tumours)) (UniProt P00533). In words: radioligand binding; labelled EGF on membrane protein of human breast tumours; multipoint Scatchard analyses and 2 point assays; saturation assay with 1 nM labelled EGF, 100 ug membrane protein, 100 nM unlabelled EGF for non-specific binding, volume 400 ul with buffer; constant of the high affinity site (2 binding sites found).

From article PMC2002144 come the findings set out here.

“epidermal growth factor (EGF), labelled (from UniProt P01132 977-1029) (ligand)” came in with a KD, high affinity site of 0.3 to 0.6 nM.
